Assays:
[1] = target: gH/gL glycoprotein on EBV virions produced by AKATA cells (Epstein-Barr virus) (UniProt P03231); assay: cell-based or functional assay
[2] = target: gLgH蛋白 (recombinant single-chain EBV M81 gL ectodomain - linker - gH ectodomain - 6xHis) (Epstein-Barr virus (M81 strain, KF373730.1)); assay: ELISA, gLgH coated at 2 μg/mL, antibody titrated from 1 μg/mL (Fig. 2)

## AMMO1 (针对EB病毒gLgH糖蛋白的人源中和单抗) (antibody)
[1]
  IC50 in the epithelial cell infection model (HNE1 cells, GFP-EBV, inhibition of GFP-positive cells): 0.0828 µg/mL
[2]
  EC50: 0.0255 µg/mL
